The record followed here is patent US20190055314A1 (ADAGENE, published 2019).

The target of experiment [1] is T1, full-length mouse CD137 on the cell surface (mouse, UniProt P20334 24-178).
T1 sequence: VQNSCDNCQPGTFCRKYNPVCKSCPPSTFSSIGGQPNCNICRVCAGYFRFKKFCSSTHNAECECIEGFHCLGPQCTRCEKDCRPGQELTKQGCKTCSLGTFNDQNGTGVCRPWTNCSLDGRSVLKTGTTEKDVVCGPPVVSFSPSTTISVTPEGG
As to the kind of experiment: flow cytometry, HEK293F cells expressing CD137 [Cont.]. For orientation: In flow cytometry, cells or beads pass a laser one at a time.
Experimental: The affinity of antibodies were also assessed against human, monkey and mouse CD137 that are transiently expressed on the surface of HEK293F cells. Briefly, HEK293F cells were transfected with a plasmid expressing full-length human, monkey or mouse CD137 from a bicistronic IRES vector, EGFP was used to identify the transfected cells. After 48 hrs, the transfected cells were harvested and then washed once with cold FACS buffer (PBS supplemented with 1% BSA). […] The cells were washed once prior to analysis by flow cytometry (Beckman® CytoFlex).

Experiment [2] addresses T2, mouse CD137 fused with human FC fragment (mouse, UniProt P20334 24-178, limits assumed).
T2 construct: also called mouse CD137-Fc; not shown: human Fc fragment
T2 sequence: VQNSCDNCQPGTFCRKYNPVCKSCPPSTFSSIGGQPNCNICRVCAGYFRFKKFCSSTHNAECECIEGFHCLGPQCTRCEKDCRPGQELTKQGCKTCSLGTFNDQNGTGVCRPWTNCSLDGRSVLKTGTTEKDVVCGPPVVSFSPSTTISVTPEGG
Kind of experiment: ELISA, coated CD137-Fc.

In experiment [3] the target is T3, GITR overexpressed on HEK293F cells (UniProt Q9Y5U5 26-241, limits assumed).
T3 construct: whole, on cells
T3 sequence (looked up): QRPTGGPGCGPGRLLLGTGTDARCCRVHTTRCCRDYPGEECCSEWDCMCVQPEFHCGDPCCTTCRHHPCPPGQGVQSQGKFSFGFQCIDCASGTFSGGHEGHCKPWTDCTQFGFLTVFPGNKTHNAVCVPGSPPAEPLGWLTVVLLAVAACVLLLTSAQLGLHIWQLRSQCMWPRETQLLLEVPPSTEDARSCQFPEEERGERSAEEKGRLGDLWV
As to the kind of experiment: flow cytometry, HEK293F cells expressing the receptor, antibody 100 nM.
Experimental: (§1) The selectivity of antibodies for CD137 was evaluated using flow cytometry analysis of their binding ability to members of TNFR superfamily. The TNFRSF receptors including CD137, OX40, CD40, GITR and CD27 were transiently overexpressed on the surface of HEK293F cells. Transfected cells were washed in pre-chilled staining buffer (PBS supplemented with 2% FBS), then incubated with 100 nM test antibodies for 1 hr on ice. […] Samples were washed once with staining buffer prior to analysis by flow cytometry.

Experiment [4] has as its target T4, OX40 overexpressed on HEK293F cells (UniProt P43489 29-277, limits assumed).
T4 construct: whole, on cells
T4 sequence (looked up): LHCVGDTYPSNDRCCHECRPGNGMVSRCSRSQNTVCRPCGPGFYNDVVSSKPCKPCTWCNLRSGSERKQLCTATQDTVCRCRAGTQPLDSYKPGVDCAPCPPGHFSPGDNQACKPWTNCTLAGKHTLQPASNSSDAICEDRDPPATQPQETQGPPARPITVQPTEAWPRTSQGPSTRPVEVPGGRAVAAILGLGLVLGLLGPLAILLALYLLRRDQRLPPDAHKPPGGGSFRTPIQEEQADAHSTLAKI
The experiment is described as above.
Experimental: as §1

The target in experiment [5] is T5, CD40 overexpressed on HEK293F cells (UniProt P25942 21-277, limits assumed).
T5 construct: whole, on cells
T5 sequence (P25942 21-277 limits assumed): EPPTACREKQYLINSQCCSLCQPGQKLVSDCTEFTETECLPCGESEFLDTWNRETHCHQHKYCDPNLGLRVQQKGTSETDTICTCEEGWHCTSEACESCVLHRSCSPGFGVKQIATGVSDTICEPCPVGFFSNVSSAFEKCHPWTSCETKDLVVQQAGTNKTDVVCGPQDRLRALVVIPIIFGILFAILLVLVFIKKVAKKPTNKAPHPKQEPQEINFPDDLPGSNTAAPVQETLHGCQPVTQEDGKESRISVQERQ
The description is as above.
Experimental: as §1

Experiment [6] deals with T6, CD27 overexpressed on HEK293F cells (UniProt P26842 20-260, limits assumed).
T6 construct: whole, on cells
T6 sequence (looked up): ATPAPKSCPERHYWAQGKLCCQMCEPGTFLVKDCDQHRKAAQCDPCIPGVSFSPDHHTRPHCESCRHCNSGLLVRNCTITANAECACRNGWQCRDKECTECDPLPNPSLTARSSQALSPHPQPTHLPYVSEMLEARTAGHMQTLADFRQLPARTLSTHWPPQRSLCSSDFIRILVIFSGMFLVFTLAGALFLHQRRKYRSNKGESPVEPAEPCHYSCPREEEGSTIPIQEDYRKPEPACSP
The experiment is described as above.
Experimental: as §1

B1: AG10059 (antibody, human IgG4 S228P, kappa, V domains shown)
VH: EVQLVESGGGLVQPGGSLRLSCAASGYSITSGHYWAWIRQAPGKGLEWVSSISGYGSTTYYADSVKGRFTISRDNSKNTLYLQLNSLRAEDTAVYYCARGGSDAVLGDWFAYWGQGTLVTVSS
VL: DIQLTQSPSSLSASVGDRVTITCRASQGIGSFLAWYQQKPGKAPKLLIYDASNLETGVPSRFSGSGSGTDFTLTISSLQPEDFATYYCQQGYYLWTFGQGTKVEIKR
On to B1, for which the binding result in experiment [1] is recorded as “no binding (tested: 100 nM (text paragraph 220))”.

B2: AG10058 (antibody, human IgG4 S228P, kappa, V domains shown)
VH: EVQLVESGGGLVQPGGSLRLSCAASGFSLSTSGVGVGWIRQAPGKGLEWLALIDWDDDKYYSPSLKSRLTISRDNSKNTLYLQLNSLRAEDTAVYYCARGGSDTVLGDWFAYWGQGTLVTVSS
VL: DIQLTQSPSSLSASVGDRVTITCRASQSVSPYLAWYQQKPGKAPKLLIYDASSLESGVPSRFSGSGSGTDFTLTISSLQPEDFATYYCQQGYSLWTFGQGTKVEIKR
What is called Kd is a measure of binding affinity in units of concentration. A lower Kd goes with higher affinity. Molecule B2 registered a Kd in experiment [2] of 300 pM. Also, the Mean in experiment [3] turned out to be 18600; in experiment [4], 189000; in experiment [5] it was 9300; in experiment [6] it was 6660.
